# From US20040213795A1 (Pfizer, published 2004)
# B1: PD1-28 IgG (antibody, V domains shown)
# VH: EVQLVQSGAEVKKPGASVKVSCKASGYRFTSYGISWVRQAPGQGLEWMGWISAYNGNTNYAQKLQGRVTMTTDTSTNTAYMELRSLRSDDTAVYYCARDADYSSGSGYWGQGTLVTVSS
# VL: SYELTQPPSVSVSPGQTARITCSGDALPKQYAYWYQQKPGQAPVMVIYKDTERPSGIPERFSGSSSGTKVTLTISGVQAEDEADYYCQSADNSITYRVFGGGTKVTVL
# B2: PD1-28 scFv (scFv, V domains shown)
# VH: B1 VH
# VL: B1 VL
# notes: not shown: scFv linker, order of the domains and vector tags (pCANTAB6 phagemid library)
# B3: PD1-17 scFv (scFv, V domains shown)
# VH: QVQLQESGPGVVKPSGTLSLTCAISGGSIGSGGSIRSTRWWSWVRQSPGKGLEWIGEIYHSGSTNYNPSLKSRVTISLDKSRNHFSLRLNSVTAADTAVYYCARQDYGDSGDWYFDLWGKGTMVTVSS
# VL: NFMLTQPHSVSESPGKTVTISCTRSSGSIASNSVQWYQQRPGSSPTTVIYEDNQRPSGVPDRFSGSIDSSSNSASLTVSGLKTEDEADYYCQSSDSSAVVFGSGTKLTVL
# notes: as for B2
# B4: PD1-17 IgG (antibody, V domains shown)
# VH: B3 VH
# VL: B3 VL
# notes: also called anti-PD-1 antibody PD1-17
# B5: PD1-33 scFv (scFv, V domains shown)
# VH: QVQLVQSGAEVKKPGASVRVSCKASGYTLTSYYIHWVRQAPGQGLEWMGIINPRGATISYAQKFQGRVTMTRDTSTSTVYMELRNLKSEDTALYYCATAGIYGFDFDYWGRGTLVTVSS
# VL: QSALTQPASVSGSPGQSITISCTGTSNDVGGYNYVSWYQHHPGKAPKLIIYDVTNRPSGVSDRFSGSKSGNTASLTISGLLAEDEGDYYCSSYTIVTNFEVLFGGGTKLTV
# B6: PD1-33 IgG (antibody, V domains shown)
# VH: B5 VH
# VL: B5 VL
# B7: PD1-35 IgG (antibody, V domains shown)
# VH: QVQLQESGPGLVKPSQTLSLTCTVSGGSISSGAYYWSWIRQHPGKGLEWIGYIYYNGNTYYNPSLRSLVTISVDASKNQFSLKLSSVTAADTAVYYCARASDYVWGGYRYMDAFDIWGRGTLITVSS
# VL: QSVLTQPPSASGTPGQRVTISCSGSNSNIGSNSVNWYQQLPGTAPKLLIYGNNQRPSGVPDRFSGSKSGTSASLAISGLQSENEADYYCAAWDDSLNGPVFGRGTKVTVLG
# notes: also called PD-35
# B8: PD1-F2 scFv (scFv, V domains shown)
# VH: EVQLVQSGGGVVQPGRSLRLSCAASGFTFSSYWMSWVRQAPGKGLEWVSAISGSGGSTYYADSVKGRFTISRDNSKNTLYLQMNSLRAEDTAVYYCAKENWGSYFDLWGQGTTVTVSS
# VL: DIVMTQSPSTLSASVGDRVTITCRASQGISSWLAWYQQKPGRAPKVLIYKASTLESGVPSRFSGSGSGTDFTLTISSLQPEDFATYYCQQSYSTPWTFGQGTKLEIK
# B9: PD1-F2 IgG (antibody, V domains shown)
# VH: B8 VH
# VL: DIVMTQSPSTLSASVGDRVTITCRASQGISSWLAWYQQKPGRAPKVLIYKASTLESGVPSRFSGSGSGTDFTLTISSLQPEDFATYYCQQSYSTPWTFGQGTKLEIKR
# notes: also called anti-mouse PD1 antibody PD1-F2
# Columns and labels:
# [1] = target: T1, Human PD-1 fusion protein (human, UniProt Q15116 25-167); assay: IgG; inhibition of biotinylated human PD-L1 fusion binding to plate-bound human PD-1 fusion
# T1 construct: also called Soluble PD-1 fusion protein; human PD-1/IgG chimera; not shown: fusion partner, called IgG in 'PD-1/IgG chimera'
# Procedure: Crude scFv-containing periplasmic extracts were obtained by subjecting the bacterial pellets from the overnight induction to osmotic shock. Pellets were resuspended in 20% (w/v) sucrose, 50 mM Tris-HCl, pH 7.5, 1 mM EDTA and cooled on ice for 30 minutes. Cellular debris was removed by centrifugation, and the scFv was purified by chromatography and buffer-exchanged into PBS. […] Binding of biotinylated PD-L1 fusion protein was detected with AMDEX-alkaline phosphatase, and the signal generated was measured by reading the absorbance at 405 nm using a microtiter plate reader. […]
# [2] = target: T1, Human PD-1 fusion protein; assay: scFv; inhibition of biotinylated human PD-L1 fusion binding to plate-bound human PD-1 fusion
# Procedure: ScFv production was induced by addition of 1 mM IPTG to exponentially growing cultures and incubation overnight at 30° C. Crude scFv-containing periplasmic extracts were obtained by subjecting the bacterial pellets from the overnight induction to osmotic shock. Pellets were resuspended in 20% (w/v) sucrose, 50 mM Tris-HCl, pH 7.5, 1 mM EDTA and cooled on ice for 30 minutes. Cellular debris was removed by centrifugation, and the scFv was purified by chromatography and buffer-exchanged into PBS. Purified scFv's (PD1-17, PD1-28, PD1-33, and PD1-35) were tested for the ability to inhibit the binding of biotinylated human PD-L1 fusion protein to human PD-1 fusion protein immobilized on plastic in a 96 well microtiter plate assay. Binding of biotinylated PD-L1 fusion protein was detected with AMDEX-alkaline phosphatase, and the signal generated was measured by reading the absorbance at 405 nm using a microtiter plate reader. Data was expressed as a percentage of the total binding and a titration of scFv concentrations was tested to establish clone potency as calculated IC₅₀ values.
# [3] = target: T2, Murine PD-1 on cells (mouse, UniProt Q02242 25-288); assay: scFv; inhibition of biotinylated murine PD-L1 fusion binding to cells expressing murine PD-1
# T2 construct: also called Cells expressing murine PD-1
# T2 sequence: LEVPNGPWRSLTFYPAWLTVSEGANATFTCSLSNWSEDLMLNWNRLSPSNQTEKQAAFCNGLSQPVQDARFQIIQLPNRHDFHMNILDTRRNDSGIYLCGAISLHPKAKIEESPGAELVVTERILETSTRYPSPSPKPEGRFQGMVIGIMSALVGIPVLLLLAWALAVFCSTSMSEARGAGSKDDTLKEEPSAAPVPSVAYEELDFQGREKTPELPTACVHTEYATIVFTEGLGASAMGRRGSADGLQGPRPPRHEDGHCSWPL
# Procedure: (§1) PD1-F2 scFv was produced and purified as described above. Cells expressing murine PD-1 were added at 10⁵ cells/well in a final volume of 100 μl to a poly-D-lysine-coated 96 well microtiter plate. Cells were centrifuged and washed twice in PBS, then blocked with 300 μl […] in PBS for 1 hour at room temperature. Blocked cells were washed three times in PBST, prior to addition of 25 μl/well of assay buffer (0.05% BSA, 0.05% Tween 20 in Dulbecco's PBS) or sample, followed by 25 μl of biotinylated murine PD-L1 fusion protein at 300 ng/ml. Binding of biotinylated PD-L1 fusion protein was detected with Amdex alkaline phosphatase and signals read as described above.
# [4] = target: T3, Murine PD-1 fusion protein (mouse, UniProt Q02242 25-167); assay: SPR (BIAcore 3000), murine PD-1 fusion immobilized on CM5 chip, antibody 7.81 to 125 nM in flow
# T3 construct: also called mouse PD-1 fusion protein; not shown: fusion partner not described
# T3 sequence: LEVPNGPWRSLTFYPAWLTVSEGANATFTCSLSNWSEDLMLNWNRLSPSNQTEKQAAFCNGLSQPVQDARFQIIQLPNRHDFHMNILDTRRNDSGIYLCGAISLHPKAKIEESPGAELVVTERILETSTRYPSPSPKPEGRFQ
# Procedure: The binding affinity of the anti-mouse PD1 antibody PD1-F2 was determined with a Surface Plasmon Resonance (SPR) system (BIAcore 3000) (Biacore, Piscataway, N.J.) using murine PD-1 fusion immobilized on a CM5 sensor chip. The concentration of PD1-F2 in the flow cell ranged from 7.81 to 125 nM, while the concentration of the anti-mouse PD1 antibody J43 (eBioscience, San Diego, Calif.) ranged from 25 nM to 500 nM.
# [5] = target: T2, Murine PD-1 on cells; assay: IgG; inhibition of biotinylated murine PD-L1 fusion binding to cells expressing murine PD-1
# Procedure: as §1, with “Cells” for “PD1-F2 scFv was produced and purified as described above. Cells”
# T1 sequence (Q15116 other isoform, or with tags, fused parts or gaps): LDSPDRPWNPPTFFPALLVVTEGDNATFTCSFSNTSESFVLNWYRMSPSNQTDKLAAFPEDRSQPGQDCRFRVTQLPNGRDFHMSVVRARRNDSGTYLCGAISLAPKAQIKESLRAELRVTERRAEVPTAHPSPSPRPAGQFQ
binder,measurement,setting,value
B1,IC50,[1],1.4 nM
B2,IC50,[2],560 nM
B3,IC50,[2],726 nM
B4,IC50,[1],2.5 nM
B5,IC50,[2],74 nM
B6,IC50,[1],1.8 nM
B7,IC50,[1],2.3 nM
B8,IC50,[3],28 nM
B9,Ka,[4],1.5e+08 M⁻¹
same,Kd,[4],6.7 nM
same,IC50,[5],1 nM
